From paper PMC12136191, “Structural basis for mTORC1 regulation by the CASTOR1-GATOR2 complex” (Research Square, 2025)

B1: CASTOR1 S111A/D304A (apo-locked mutant) (natural protein)
chain: MELHILEHRVRVLSVARPGLWLYTHPLIKLLFLPRRSRCKFFSLTETPEDYTLMVDEEGFKELPPSEFLQVAEATWLVLNVSSHSGAAVQAAGVTKIARSVIAPLAEHHVAVLMLSTYQTDFILVREQDLSVVIHTLAQEFDIYREVGGEPVPVTRDDSSNGFPRTQHGPSPTVHPIQSPQNRFCVLTLDPETLPAIATTLIDVLFYSHSTPKEAASSSPEPSSITFFAFSLIEGYISIVMDAETQKKFPSDLLLTSSSGELWRMVRIGGQPLGFDECGIVAQIAGPLAAADISAYYISTFNFAHALVPEDGIGSVIEVLQRRQEGLAS
notes: CASTOR1 (arginine sensor) with S111A and D304A; codon optimized synthetic DNA; Homodimer in the structure; also called CASTOR1^apo; 6X-His-CASTOR1^apo; source: E. coli BL21(DE3), pET-28a+, purified (Ni-NTA, Superdex 200 gel filtration)
B2: MIOS, subunit within purified GATOR2 (natural protein)
chain: MSGTKPDILWAPHHVDRFVVCDSELSLYHVESTVNSELKAGSLRLSEDSAATLLSINSDTPYMKCVAWYLNYDPECLLAVGQANGRVVLTSLGQDHNSKFKDLIGKEFVPKHARQCNTLAWNPLDSNWLAAGLDKHRADFSVLIWDICSKYTPDIVPMEKVKLSAGETETTLLVTKPLYELGQNDACLSLCWLPRDQKLLLAGMHRNLAIFDLRNTSQKMFVNTKAVQGVTVDPYFHDRVASFYEGQVAIWDLRKFEKPVLTLTEQPKPLTKVAWCPTRTGLLATLTRDSNIIRLYDMQHTPTPIGDETEPTIIERSVQPCDNYIASFAWHPTSQNRMIVVTPNRTMSDFTVFERISLAWSPITSLMWACGRHLYECTEEENDNSLEKDIATKMRLRALSRYGLDTEQVWRNHILAGNEDPQLKSLWYTLHFMKQYTEDMDQKSPGNKGSLVYAGIKSIVKSSLGMVESSRHNWSGLDKQSDIQNLNEERILALQLCGWIKKGTDVDVGPFLNSLVQEGEWERAAAVALFNLDIRRAIQILNEGASSEKGDLNLNVVAMALSGYTDEKNSLWREMCSTLRLQLNNPYLCVMFAFLTSETGSYDGVLYENKVAVRDRVAFACKFLSDTQLNRYIEKLTNEMKEAGNLEGILLTGLTKDGVDLMESYVDRTGDVQTASYCMLQGSPLDVLKDERVQYWIENYRNLLDAWRFWHKRAEFDIHRSKLDPSSKPLAQVFVSCNFCGKSISYSCSAVPHQGRGFSQYGVSGSPTKSKVTSCPGCRKPLPRCALCLINMGTPVSSCPGGTKSDEKVDLSKDKKLAQFNNWFTWCHNCRHGGHAGHMLSWFRDHAECPVSACTCKCMQLDTTGNLVPAETVQP
notes: MIOS, subunit of GATOR2; codon optimized synthetic DNA; The MIOS chain of m1, written alone for the pairs that touch in the structure; also called front face MIOS; source: HEK293-GNTI cells, co-expressed with the other GATOR2 subunits, purified as part of GATOR2

Tests used:
[1] = biological target: B2; assay: cryo-EM structure; purified GATOR2 at 0.45 mg/mL with 3-fold molar excess of CASTOR1^apo, 45 minutes on ice, frozen on grids; no Arg; Titan Krios; conditions: both partners purified
[2] = biological target: the molecule itself; assay: as above

binding result [1]	Binder	binding result [2]
binds	B1	binds
–	B2	binds
